The target in experiment [1] is PKA-phosphorylated full-length human Tau (PKA-Tau) (human) (UniProt P10636).
The target in experiment [2] is Fluorescein (FITC)-labelled bi-phospho Tau peptide pS2 (Tau^210–222-…-Tau^318–331) (human). The experiment is described as follows: fluorescence polarisation; 14-3-3ζ titrated (twofold series from 400 μM) into 10 nM fluorescein-labelled peptide; 10 mM HEPES pH 7.4, 150 mM NaCl, 50 µM TCEP, 0.1% Tween20, 0.1% BSA; room temperature; 4PL fit.
Chain of Fluorescein (FITC)-labelled bi-phospho Tau peptide pS2 (Tau^210–222-…-Tau^318–331) (human) (peptide, as listed by the source): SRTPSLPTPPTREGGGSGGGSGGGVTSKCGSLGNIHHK

Chain of PKA-phosphorylated full-length human Tau (PKA-Tau) (human) (P10636 other isoform, or with tags, fused parts or gaps): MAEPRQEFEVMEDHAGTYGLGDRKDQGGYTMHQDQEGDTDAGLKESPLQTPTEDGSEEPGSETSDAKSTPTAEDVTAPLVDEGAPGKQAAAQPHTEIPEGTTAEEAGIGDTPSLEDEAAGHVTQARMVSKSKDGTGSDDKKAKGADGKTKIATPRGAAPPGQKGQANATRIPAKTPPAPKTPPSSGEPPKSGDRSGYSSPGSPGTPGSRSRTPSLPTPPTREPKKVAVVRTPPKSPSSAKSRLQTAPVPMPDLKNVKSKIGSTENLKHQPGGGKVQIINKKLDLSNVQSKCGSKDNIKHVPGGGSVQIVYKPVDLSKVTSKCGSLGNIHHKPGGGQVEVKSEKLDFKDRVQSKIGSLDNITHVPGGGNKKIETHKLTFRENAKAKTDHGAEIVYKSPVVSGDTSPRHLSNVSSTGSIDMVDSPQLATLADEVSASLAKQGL

“14-3-3 protein zeta (14-3-3ζ) (from UniProt P63104 1-245) (natural protein)” yielded an FRAP mobile fractions in PKA-Tau:14-3-3ζ condensates in experiment [1] of 50%. In experiment [2], this substance yielded a Kd of 1 µM.

The values above are taken from PMC12313985.
